Assay results published in paper PMC9279676, “ERK2 MAP kinase regulates SUFU binding by multisite phosphorylation of GLI1” (Life Science Alliance, 2022).
Positions count from the first letter of the chain named. Names may count otherwise. “And” between values parts separate entries of the source, which are not always exact repeats. Identical values can stand only once.

T1: full-length human SUFU protein, 35S-radiolabeled (human, UniProt Q9UMX1-1 1-484, [35S]-methionine label)
T1 construct: human SUFU, full length, residues 1-484, from plasmid pGEM4Z-SUFU; also called 35S-SUFU; radiolabeled SUFU; source: in vitro transcription and translation (SP6, Promega), partially purified by ammonium sulfate precipitation
T1 sequence (looked up): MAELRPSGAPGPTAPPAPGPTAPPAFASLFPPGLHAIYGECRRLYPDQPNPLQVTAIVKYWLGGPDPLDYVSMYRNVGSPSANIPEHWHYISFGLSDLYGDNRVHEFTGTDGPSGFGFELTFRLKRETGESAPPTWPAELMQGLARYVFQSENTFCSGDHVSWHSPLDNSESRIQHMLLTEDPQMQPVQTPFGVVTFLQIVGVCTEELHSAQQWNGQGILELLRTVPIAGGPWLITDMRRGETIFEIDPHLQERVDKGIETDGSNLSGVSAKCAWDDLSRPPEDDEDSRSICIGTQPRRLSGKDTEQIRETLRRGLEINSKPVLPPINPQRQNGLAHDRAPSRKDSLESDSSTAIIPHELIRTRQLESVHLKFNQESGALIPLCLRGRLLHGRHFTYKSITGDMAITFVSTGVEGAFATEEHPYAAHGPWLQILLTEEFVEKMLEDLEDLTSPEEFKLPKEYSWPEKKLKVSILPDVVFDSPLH

T2: GST-SUFU (fusion of GST to full-length human SUFU) (human, UniProt Q9UMX1-1 1-484)
T2 construct: human SUFU, full length (residues 1-484), BamHI-SUFU-SalI cassette in pGEX-LB; pGEX-LB carries a Gly-Gly-Gly-Gly-Gly-Ser-Gly stretch between GST and the fused protein; also called full-length GST-SUFU; source: Escherichia coli, purified (glutathione-Sepharose); not shown: GST, N-terminal, kept
T2 sequence (looked up): T1 sequence (looked up)

T3: full-length human SUFU protein, 35S-radiolabeled (human, UniProt Q9UMX1-1 1-484, [35S]-methionine label)
T3 chain: T1 sequence (looked up)

B1: GST-GLI1_(68-232), wild type, phosphorylated by ERK2 (domain or fragment, human, UniProt P08151-1 68-232, looked up)
chain: FSSPRSAVKLTKKRALSISPLSDASLDLQTVIRTSPSSLVAFINSRCTSPGGSYGHLSIGTMSPSLGFPAQMNHQKGPSPSFGVQPCGPHDSARGGMIPHPQSRGPFPTCQLKSELDMLVGKCREEPLEGDMSSPNSTGIQDPLLGMLDGREDLEREEKREPESV
modifications: phosphorylated by ERK2 to ∼3 mol phosphate per mole; most efficient sites Ser116 and Ser130, followed by Ser102 and Ser201
notes: vector pGEX-LB; also called ERK2-phosphorylated GLI1; WT + ERK2; source: bacteria, purified (glutathione-Sepharose); then phosphorylated with purified active ERK2 (2 h, 30°C)
B2: GST-GLI1^S102 (GST-GLI1_(68-232), only S102 intact), mock treated (domain or fragment, human, UniProt P08151-1 68-232, looked up)
chain: B1 chain with S3A, S19A, S49A, S63A, S79A, S134A
notes: only the SP site S102 intact; also called S102 one site only; source: bacteria, purified (glutathione-Sepharose); mock treated (no ERK2)
B3: GST-GLI1^AAA (GST-GLI1_(68-232) S102A S116A S130A), mock treated (domain or fragment, human, UniProt P08151-1 68-232, looked up)
chain: B1 chain with S35A, S49A, S63A
notes: source: bacteria, purified (glutathione-Sepharose); mock treated (no ERK2)
B4: GST-GLI1^AAA, treated with active ERK2 (domain or fragment, human, UniProt P08151-1 68-232, looked up)
chain: B1 chain with S35A, S49A, S63A
modifications: treated with ERK2; S70, S86, S146 and S201 remained intact as possible phosphosites
notes: also called GLI1^AAA + ERK2; source: bacteria, purified (glutathione-Sepharose); then phosphorylated with purified active ERK2
B5: GST-GLI1_(68-232), wild type, unphosphorylated (mock treated) (domain or fragment, human, UniProt P08151-1 68-232, looked up)
chain: B1 chain
notes: vector pGEX-LB (Gly-Gly-Gly-Gly-Gly-Ser-Gly stretch between GST and the fused part); the plasmid is from Whisenant et al, 2010; also called wild-type GLI1; WT; source: bacteria, purified (glutathione-Sepharose); untreated or mock treated (no ERK2)
B6: GST-GLI1^SSS (GST-GLI1_(68-232) S70A S86A S146A S201A), mock treated (domain or fragment, human, UniProt P08151-1 68-232, looked up)
chain: B1 chain with S3A, S19A, S79A, S134A
notes: only S102, S116 and S130 left intact; source: bacteria, purified (glutathione-Sepharose); mock treated (no ERK2)
B7: GST-GLI1^S102,S116, phosphorylated by ERK2 (domain or fragment, human, UniProt P08151-1 68-232, looked up)
chain: B1 chain with S3A, S19A, S63A, S79A, S134A
modifications: phosphorylated by ERK2; intact SP sites S102, S116
notes: only the SP sites S102 and S116 intact; also called ERK2-treated GLI1^S102,S116; source: bacteria, purified (glutathione-Sepharose); then phosphorylated with purified active ERK2
B8: GST-GLI1^7A, treated with active ERK2 (domain or fragment, human, UniProt P08151-1 68-232, looked up)
chain: B1 chain with S3A, S19A, S35A, S49A, S63A, S79A, S134A
modifications: treated with ERK2; only minimally phosphorylated
notes: also called 7A+ERK2; ERK2-treated GLI1^7A; source: bacteria, purified (glutathione-Sepharose); then treated with purified active ERK2
B9: GST-GLI1^7A (GST-GLI1_(68-232) with all seven SP serines changed to alanine), mock treated (domain or fragment, human, UniProt P08151-1 68-232, looked up)
chain: B1 chain with S3A, S19A, S35A, S49A, S63A, S79A, S134A
notes: as for B3
B10: GST-GLI1^S116 (GST-GLI1_(68-232), only S116 intact), mock treated (domain or fragment, human, UniProt P08151-1 68-232, looked up)
chain: B1 chain with S3A, S19A, S35A, S63A, S79A, S134A
notes: only the SP site S116 intact; also called S116 one site only; source: bacteria, purified (glutathione-Sepharose); mock treated (no ERK2)
B11: GST-GLI1^S102,S130, phosphorylated by ERK2 (domain or fragment, human, UniProt P08151-1 68-232, looked up)
chain: B1 chain with S3A, S19A, S49A, S79A, S134A
modifications: phosphorylated by ERK2; intact SP sites S102, S130
notes: only the SP sites S102 and S130 intact; also called ERK2-treated GLI1^S102,S130; source: bacteria, purified (glutathione-Sepharose); then phosphorylated with purified active ERK2
B12: GST-GLI1^SSS, phosphorylated by ERK2 (domain or fragment, human, UniProt P08151-1 68-232, looked up)
chain: B1 chain with S3A, S19A, S79A, S134A
modifications: phosphorylated by ERK2; intact SP sites S102, S116, S130
notes: only S102, S116 and S130 left intact; also called ERK-phosphorylated GLI1^SSS; phosphorylated GLI1^SSS mutant; source: bacteria, purified (glutathione-Sepharose); then phosphorylated with purified active ERK2
B13: GST-GLI1^S102, phosphorylated by ERK2 (domain or fragment, human, UniProt P08151-1 68-232, looked up)
chain: B1 chain with S3A, S19A, S49A, S63A, S79A, S134A
modifications: phosphorylated by ERK2; only intact SP site S102
notes: only the SP site S102 intact; also called ERK2-treated GLI1^S102; source: bacteria, purified (glutathione-Sepharose); then phosphorylated with purified active ERK2
B14: GLI1_(1-232), wild type, 35S-radiolabeled (domain or fragment, human, UniProt P08151-1 1-232, looked up)
chain: MFNSMTPPPISSYGEPCCLRPLPSQGAPSVGTEGLSGPPFCHQANLMSGPHSYGPARETNSCTEGPLFSSPRSAVKLTKKRALSISPLSDASLDLQTVIRTSPSSLVAFINSRCTSPGGSYGHLSIGTMSPSLGFPAQMNHQKGPSPSFGVQPCGPHDSARGGMIPHPQSRGPFPTCQLKSELDMLVGKCREEPLEGDMSSPNSTGIQDPLLGMLDGREDLEREEKREPESV
modifications: [35S]-methionine label
notes: source: in vitro transcription/translation (T7), partially purified by ammonium sulfate precipitation
B15: GLI1_(1-232) S105F (tumor-derived), 35S-radiolabeled (domain or fragment, human, UniProt P08151-1 1-232, looked up)
chain: B14 chain with S105F
modifications: [35S]-methionine label
notes: source: in vitro transcription/translation, partially purified by ammonium sulfate precipitation
B16: GLI1_(1-232) S102E, 35S-radiolabeled (domain or fragment, human, UniProt P08151-1 1-232, looked up)
chain: B14 chain with S102E
modifications: [35S]-methionine label
notes: as for B14
B17: GLI1_(1-232) L124P (tumor-derived), 35S-radiolabeled (domain or fragment, human, UniProt P08151-1 1-232, looked up)
chain: B14 chain with L124P
modifications: [35S]-methionine label
notes: as for B15
B18: GLI1_(1-232) S102E S116E S130E, 35S-radiolabeled (domain or fragment, human, UniProt P08151-1 1-232, looked up)
chain: B14 chain with S102E, S116E, S130E
modifications: [35S]-methionine label
notes: also called S102E S116E S130E triple mutant; EEE; source: in vitro transcription/translation (T7), partially purified by ammonium sulfate precipitation
B19: GLI1_(1-232) S102E S130E, 35S-radiolabeled (domain or fragment, human, UniProt P08151-1 1-232, looked up)
chain: B14 chain with S102E, S130E
modifications: [35S]-methionine label
notes: also called S102E S130E double mutant; source: in vitro transcription/translation (T7), partially purified by ammonium sulfate precipitation
B20: GLI1_(1-232) S102E S116E, 35S-radiolabeled (domain or fragment, human, UniProt P08151-1 1-232, looked up)
chain: B14 chain with S102E, S116E
modifications: [35S]-methionine label
notes: also called S102E S116E double mutant; source: in vitro transcription/translation (T7), partially purified by ammonium sulfate precipitation

The binders below were run against T1, full-length human SUFU protein, … (assay: pull-down; purified GST-GLI1_(68-232) variants (mock treated or ERK2 phosphorylated), 0 or 1.25-80 nM, on glutathione-Sepharose beads; ∼1 pmol 35S-SUFU in 200 μl; 15 min at 30°C, then 1 h at room temperature; Binding Buffer (20 mM Tris-HCl pH 7.5, 125 mM KOAc, 0.5 mM EDTA, 5 mM DTT, 0.1% Tween20, 12.5% glycerol) + 1 mg/ml BSA; bound SUFU quantified by SDS-PAGE and Phosphorimager; Kd from binding isotherms). Conditions: one partner purified.

Kd | Binder
93 nM | B1
~3 nM | B2
17 nM | B3
20 nM | B4
~4 nM and 4 nM and 3 nM | B5
2.6 nM | B6
43 ± 8 nM | B7
~23 nM | B8
~23 nM | B9
14 nM | B10
25 ± 3 nM | B11
127 nM | B12
14 ± 4 nM | B13

These binders were tested against T2, GST-SUFU (fusion of GST to full-length …) (assay: pull-down; purified GST-SUFU, 1.25-80 nM, captured on glutathione-Sepharose beads; ∼1 pmol 35S-GLI1 (1-232 or full length) in 200 μl; 15 min at 30°C, then 1 h at room temperature; Binding Buffer + 1 mg/ml BSA; bound GLI1 quantified by SDS-PAGE and Phosphorimager; Kd from binding isotherms). Conditions: one partner purified.

Kd | fold reduction in affinity against wild-type GLI1_(1-232) [fold] | Binder
8 nM and 14 nM | – | B14
181 ± 30 nM | – | B15
– | ~8 | B16
3800 nM | – | B17
– | 65 | B18
– | 38 | B19
– | 12 | B20

Molecular target: T3, full-length human SUFU protein, …
Test: GLI1 phosphorylated by ERK2
Conditions: not given

Kd [nM] | Binder
118 | B1
